Source: patent US20230086530A1

Columns and labels:
[1] = molecular target: human CD47 on the cell membrane surface of CD47 positive tumor cells (Raji, NUGC-4, Jurkat) (human) (UniProt Q08722); test: FACS on Raji cells, 0.5 µg/mL
[2] = molecular target: human CD47 on the cell membrane surface of CD47 positive tumor cells (Raji, NUGC-4, Jurkat) (human) (UniProt Q08722); test: FACS on Raji cells, 0.05 µg/mL

human CD47 on the cell membrane surface of CD47 positive tumor cells (Raji, NUGC-4, Jurkat) (human), sequence (Q08722 19-323): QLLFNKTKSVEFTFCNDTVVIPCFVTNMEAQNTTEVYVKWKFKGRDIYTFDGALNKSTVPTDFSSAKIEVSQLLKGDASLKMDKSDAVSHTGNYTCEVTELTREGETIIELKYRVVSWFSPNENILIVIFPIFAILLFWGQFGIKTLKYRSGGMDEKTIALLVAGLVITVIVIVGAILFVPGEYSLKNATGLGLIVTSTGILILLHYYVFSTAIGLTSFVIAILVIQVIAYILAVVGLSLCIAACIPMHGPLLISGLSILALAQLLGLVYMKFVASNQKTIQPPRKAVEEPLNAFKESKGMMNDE

isotype control antibody
Mean fluorescence intensity (multiple) [1]: 1 fold | Mean fluorescence intensity (multiple) [2]: 1 fold
